*: point of attachment. FITC = O=C1OC2(c3ccc(O)cc3Oc3cc(O)ccc32)c2ccc(NC(=S)*)cc21
B1: KL peptide, FITC-TEKAKLVIKLLALGKTEQ (KL decapeptide of ARF48 with flanking extensions) (peptide)
peptide: {FITC}-TEKAKLVIKLLALGKTEQ-NH2
notes: ARF48 is encoded by a +1 alternate reading frame of an Arabidopsis thaliana cDNA and is not a natural protein; The core decapeptide comes from an aberrant alternate-frame polypeptide, not from a natural protein; also called synthetic KL decapeptide; source: synthetic peptide (Peptide 2.0, Inc.)
B2: NR peptide, FITC-TEKANRLLLTGKTEQ (canonical DnaK peptide substrate NRLLLTG with flanking extensions) (peptide)
peptide: {FITC}-TEKANRLLLTGKTEQ-NH2
notes: canonical DnaK peptide substrate NRLLLTG flanked by the N-terminal extension TEKA and the C-terminal extension KTEQ; source: synthetic peptide (Peptide 2.0, Inc.)

Biological target: T1, 6His-DnaK (E. coli DnaK protein) (E. coli, UniProt P0A6Y8 1-638)
T1 construct: molecular chaperone DnaK of E. coli, from the ASKA expression clone; The functional rows concern endogenous DnaK in E. coli BL21 cells; source: purified from the ASKA expression clone by chromatography on Ni-NTA agarose
Assay: MST; 20 nM fluorescein-labelled peptide incubated with varying concentrations of DnaK; 50 mM Tris pH 7.4, 150 mM NaCl, 10 mM MgCl2, 0.05% Tween-20, 0.05% BSA; 1 h at 20°C; Monolith NT.115; three independent trials
Conditions: both partners purified

T1 sequence (P0A6Y8 whole entry): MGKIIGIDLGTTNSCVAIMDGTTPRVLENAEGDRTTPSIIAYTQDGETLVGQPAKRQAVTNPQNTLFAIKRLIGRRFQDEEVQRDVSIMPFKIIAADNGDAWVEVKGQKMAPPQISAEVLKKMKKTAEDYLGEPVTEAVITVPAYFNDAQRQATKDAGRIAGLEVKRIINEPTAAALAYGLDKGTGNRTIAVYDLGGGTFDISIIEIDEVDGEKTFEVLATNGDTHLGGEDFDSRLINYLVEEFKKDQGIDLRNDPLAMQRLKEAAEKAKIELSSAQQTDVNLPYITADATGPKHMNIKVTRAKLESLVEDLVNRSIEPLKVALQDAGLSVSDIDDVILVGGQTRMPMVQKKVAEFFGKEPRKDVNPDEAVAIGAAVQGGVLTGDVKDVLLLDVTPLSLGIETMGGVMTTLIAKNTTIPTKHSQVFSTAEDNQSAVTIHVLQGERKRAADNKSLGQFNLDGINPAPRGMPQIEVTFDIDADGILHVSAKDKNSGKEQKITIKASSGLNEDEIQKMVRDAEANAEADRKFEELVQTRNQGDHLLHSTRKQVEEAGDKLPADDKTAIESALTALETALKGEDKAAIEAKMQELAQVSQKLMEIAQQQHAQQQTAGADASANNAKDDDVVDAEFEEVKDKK

Row | Binder | binding result
1 | B1 | binds
2 | B2 | binds

Reference: PMC9053816, “A polypeptide model for toxic aberrant proteins induced by aminoglycoside antibiotics” (PLoS ONE, 2022)
